Patent US11352401

Key:
HLA-A*01 = target: T1, HLA-A*01 (human); test: UV peptide-exchange ELISA; +++ = yield >50%
T1 construct: MHC monomer made peptide-receptive by UV cleavage of a UV-sensitive ligand; also called peptide-receptive MHC class I monomer
From the text: Candidate peptides for T cell based therapies according to the present invention were further tested for their MHC binding capacity (affinity). The individual peptide-MHC complexes were produced by UV-ligand exchange, where a UV-sensitive peptide is cleaved upon UV-irradiation, and exchanged with the peptide of interest as analyzed. Only peptide candidates that can effectively bind and stabilize the peptide-receptive MHC molecules prevent dissociation of the MHC complexes. To determine the yield of the exchange reaction, an ELISA was performed based on the detection of the light chain (β2m) of stabilized MHC complexes. The assay was performed as generally described in Rodenko et al. (Rodenko et al., 2006).
96 well MAXISorp plates (NUNC) were coated over night with 2 ug/ml streptavidin in PBS at room temperature, washed 4× and blocked for 1 h at 37° C. in 2% BSA containing blocking buffer. […] Peptide-MHC monomers of the UV-exchange reaction were diluted 100-fold in blocking buffer. Samples were incubated for 1 h at 37° C., washed four times, incubated with 2 ug/ml HRP conjugated anti-β2m for 1h at 37° C., washed again and detected with TMB solution that is stopped with […]. Absorption was measured at 450 nm.

HLA-A*02 = target: T2, HLA-A*02 (human); test: UV peptide-exchange ELISA; ++++ = yield >75%
T2 construct: MHC monomer made peptide-receptive by UV cleavage of a UV-sensitive ligand; also called peptide-receptive MHC class I monomer

Row | Binder | peptide exchange yield (HLA-A*01) [%] | peptide exchange yield (HLA-A*02) [%]
1 | VTDGSLYEGVAY [VTDGSLYEGVAY (SEQ ID NO: 191)] | 50 to 75 | 
2 | ELDSKVEVLTY [ELDSKVEVLTY (SEQ ID NO: 403)] | 50 to 75 | 
3 | ATDISRQNEY [ATDISRQNEY (SEQ ID NO: 400)] | 50 to 75 | 
4 | QSDPGTSVLGY [QSDPGTSVLGY (SEQ ID NO: 167)] | 50 to 75 | 
5 | NTDPTAPPY [NTDPTAPPY (SEQ ID NO: 165)] | 50 to 75 | 
6 | LQSSGLTLLL [LQSSGLTLLL (SEQ ID NO: 98)] |  | > 75
7 | YVDINTFRL [YVDINTFRL (SEQ ID NO: 84)] |  | > 75
8 | SLLEQAIAL [SLLEQAIAL (SEQ ID NO: 102)] |  | > 75
9 | LLLGSIGLLGV [LLLGSIGLLGV (SEQ ID NO: 109)] |  | > 75
10 | ALWLVDPLTV [ALWLVDPLTV (SEQ ID NO: 132)] |  | > 75
11 | LVDDGTHGQY [LVDDGTHGQY (SEQ ID NO: 161)] | 50 to 75 | 
12 | SLLTHIPTA [SLLTHIPTA (SEQ ID NO: 105)] |  | > 75
13 | ILDERQVLL [ILDERQVLL (SEQ ID NO: 114)] |  | > 75
14 | SVASVLLYL [SVASVLLYL (SEQ ID NO: 124)] |  | > 75
15 | HLVGGLHTV [HLVGGLHTV (SEQ ID NO: 96)] |  | > 75
16 | ASEQQALHTVQY [ASEQQALHTVQY (SEQ ID NO: 398)] | 50 to 75 | 
17 | RTDSCSSAQAQY [RTDSCSSAQAQY (SEQ ID NO: 172)] | 50 to 75 | 
18 | VLALVNSTV [VLALVNSTV (SEQ ID NO: 97)] |  | > 75
19 | NSDSSLTLREFY [NSDSSLTLREFY (SEQ ID NO: 163)] | 50 to 75 | 
20 | VQMVITEAQKV [VQMVITEAQKV (SEQ ID NO: 88)] |  | > 75
21 | ALLEMFPEITV [ALLEMFPEITV (SEQ ID NO: 122)] |  | > 75
22 | ALSSVLHSI [ALSSVLHSI (SEQ ID NO: 118)] |  | > 75
23 | NLWGGQGLLGV [NLWGGQGLLGV (SEQ ID NO: 130)] |  | > 75

Row | Binder | peptide exchange yield (HLA-A*01) [%] | peptide exchange yield (HLA-A*02) [%]
24 | ILSTTMVTV [ILSTTMVTV (SEQ ID NO: 89)] |  | > 75
25 | ALLANLPAV [ALLANLPAV (SEQ ID NO: 120)] |  | > 75
26 | MTLPVDAVISV [MTLPVDAVISV (SEQ ID NO: 133)] |  | > 75
27 | TDYHVRVY [TDYHVRVY (SEQ ID NO: 182)] | 50 to 75 | 
28 | VLQPFLPSI [VLQPFLPSI (SEQ ID NO: 125)] |  | > 75
29 | LLKEFVQRV [LLKEFVQRV (SEQ ID NO: 131)] |  | > 75
30 | TLYPYQISQL [TLYPYQISQL (SEQ ID NO: 87)] |  | > 75
31 | FLSTVTSV [FLSTVTSV (SEQ ID NO: 126)] |  | > 75
32 | TLQEKILQV [TLQEKILQV (SEQ ID NO: 93)] |  | > 75
33 | MLLETQDALYV [MLLETQDALYV (SEQ ID NO: 115)] |  | > 75
34 | FLKEKVPGI [FLKEKVPGI (SEQ ID NO: 99)] |  | > 75
35 | FLDPNARPLV [FLDPNARPLV (SEQ ID NO: 117)] |  | > 75
36 | VADLHLYLY [VADLHLYLY (SEQ ID NO: 187)] | 50 to 75 | 
37 | FSIPEGALVAV [FSIPEGALVAV (SEQ ID NO: 388)] |  | > 75
38 | LLQGAIESV [LLQGAIESV (SEQ ID NO: 107)] |  | > 75
39 | AVLTGLVEV [AVLTGLVEV (SEQ ID NO: 113)] |  | > 75
40 | RTADITVTV [RTADITVTV (SEQ ID NO: 119)] |  | > 75
41 | LLDSLREQY [LLDSLREQY (SEQ ID NO: 156)] | 50 to 75 | 
42 | ALVDTLTGI [ALVDTLTGI (SEQ ID NO: 121)] |  | > 75
43 | VTDGINPLIDRY [VTDGINPLIDRY (SEQ ID NO: 190)] | 50 to 75 | 
44 | VSDAKLDKY [VSDAKLDKY (SEQ ID NO: 188)] | 50 to 75 | 
45 | YIDEFQSLV [YIDEFQSLV (SEQ ID NO: 85)] |  | > 75
46 | YADTVRPEFY [YADTVRPEFY (SEQ ID NO: 197)] | 50 to 75 | 

Row | Binder | peptide exchange yield (HLA-A*01) [%] | peptide exchange yield (HLA-A*02) [%]
47 | SRTINVSNLY [SRTINVSNLY (SEQ ID NO: 176)] | 50 to 75 | 
48 | VLYDKDAVYV [VLYDKDAVYV (SEQ ID NO: 129)] |  | > 75
49 | VVDSVGGYLY [VVDSVGGYLY (SEQ ID NO: 195)] | 50 to 75 | 
50 | FVIDGFDEL [FVIDGFDEL (SEQ ID NO: 86)] |  | > 75
51 | ITIGVLARV [ITIGVLARV (SEQ ID NO: 95)] |  | > 75
52 | FLGTTPTL [FLGTTPTL (SEQ ID NO: 128)] |  | > 75
53 | FIIDTTYPAYV [FIIDTTYPAYV (SEQ ID NO: 106)] |  | > 75
54 | DTDSQRLAY [DTDSQRLAY (SEQ ID NO: 402)] | 50 to 75 | 
55 | GLDGSLVFL [GLDGSLVFL (SEQ ID NO: 127)] |  | > 75
56 | NTQITDIGRY [NTQITDIGRY (SEQ ID NO: 166)] | 50 to 75 | 
57 | RQYPTPFQL [RQYPTPFQL (SEQ ID NO: 100)] |  | > 75
58 | LTEAVLNRY [LTEAVLNRY (SEQ ID NO: 160)] | 50 to 75 | 
59 | VLMEENSKL [VLMEENSKL (SEQ ID NO: 116)] |  | > 75
60 | FLYYPDPVL [FLYYPDPVL (SEQ ID NO: 103)] |  | > 75
61 | GMLDIFWGV [GMLDIFWGV (SEQ ID NO: 104)] |  | > 75
62 | VLPDIETLIGV [VLPDIETLIGV (SEQ ID NO: 94)] |  | > 75
63 | LVDNSIRELQY [LVDNSIRELQY (SEQ ID NO: 162)] | 50 to 75 | 
64 | LLADFQALL [LLADFQALL (SEQ ID NO: 110)] |  | > 75
65 | TTDIIEKY [TTDIIEKY (SEQ ID NO: 186)] | 50 to 75 | 
66 | SVSDGIHSV [SVSDGIHSV (SEQ ID NO: 112)] |  | > 75
67 | TSAHPEDSSFY [TSAHPEDSSFY (SEQ ID NO: 184)] | 50 to 75 | 
68 | TADGKTYYY [TADGKTYYY (SEQ ID NO: 181)] | 50 to 75 | 
